From article PMC2113082 (The Journal of Cell Biology, 1984)

Molecular target: von Willebrand factor (human, UniProt P04275 764-2813)
Assay: ELISA

Sequence of von Willebrand factor (P04275 764-2813): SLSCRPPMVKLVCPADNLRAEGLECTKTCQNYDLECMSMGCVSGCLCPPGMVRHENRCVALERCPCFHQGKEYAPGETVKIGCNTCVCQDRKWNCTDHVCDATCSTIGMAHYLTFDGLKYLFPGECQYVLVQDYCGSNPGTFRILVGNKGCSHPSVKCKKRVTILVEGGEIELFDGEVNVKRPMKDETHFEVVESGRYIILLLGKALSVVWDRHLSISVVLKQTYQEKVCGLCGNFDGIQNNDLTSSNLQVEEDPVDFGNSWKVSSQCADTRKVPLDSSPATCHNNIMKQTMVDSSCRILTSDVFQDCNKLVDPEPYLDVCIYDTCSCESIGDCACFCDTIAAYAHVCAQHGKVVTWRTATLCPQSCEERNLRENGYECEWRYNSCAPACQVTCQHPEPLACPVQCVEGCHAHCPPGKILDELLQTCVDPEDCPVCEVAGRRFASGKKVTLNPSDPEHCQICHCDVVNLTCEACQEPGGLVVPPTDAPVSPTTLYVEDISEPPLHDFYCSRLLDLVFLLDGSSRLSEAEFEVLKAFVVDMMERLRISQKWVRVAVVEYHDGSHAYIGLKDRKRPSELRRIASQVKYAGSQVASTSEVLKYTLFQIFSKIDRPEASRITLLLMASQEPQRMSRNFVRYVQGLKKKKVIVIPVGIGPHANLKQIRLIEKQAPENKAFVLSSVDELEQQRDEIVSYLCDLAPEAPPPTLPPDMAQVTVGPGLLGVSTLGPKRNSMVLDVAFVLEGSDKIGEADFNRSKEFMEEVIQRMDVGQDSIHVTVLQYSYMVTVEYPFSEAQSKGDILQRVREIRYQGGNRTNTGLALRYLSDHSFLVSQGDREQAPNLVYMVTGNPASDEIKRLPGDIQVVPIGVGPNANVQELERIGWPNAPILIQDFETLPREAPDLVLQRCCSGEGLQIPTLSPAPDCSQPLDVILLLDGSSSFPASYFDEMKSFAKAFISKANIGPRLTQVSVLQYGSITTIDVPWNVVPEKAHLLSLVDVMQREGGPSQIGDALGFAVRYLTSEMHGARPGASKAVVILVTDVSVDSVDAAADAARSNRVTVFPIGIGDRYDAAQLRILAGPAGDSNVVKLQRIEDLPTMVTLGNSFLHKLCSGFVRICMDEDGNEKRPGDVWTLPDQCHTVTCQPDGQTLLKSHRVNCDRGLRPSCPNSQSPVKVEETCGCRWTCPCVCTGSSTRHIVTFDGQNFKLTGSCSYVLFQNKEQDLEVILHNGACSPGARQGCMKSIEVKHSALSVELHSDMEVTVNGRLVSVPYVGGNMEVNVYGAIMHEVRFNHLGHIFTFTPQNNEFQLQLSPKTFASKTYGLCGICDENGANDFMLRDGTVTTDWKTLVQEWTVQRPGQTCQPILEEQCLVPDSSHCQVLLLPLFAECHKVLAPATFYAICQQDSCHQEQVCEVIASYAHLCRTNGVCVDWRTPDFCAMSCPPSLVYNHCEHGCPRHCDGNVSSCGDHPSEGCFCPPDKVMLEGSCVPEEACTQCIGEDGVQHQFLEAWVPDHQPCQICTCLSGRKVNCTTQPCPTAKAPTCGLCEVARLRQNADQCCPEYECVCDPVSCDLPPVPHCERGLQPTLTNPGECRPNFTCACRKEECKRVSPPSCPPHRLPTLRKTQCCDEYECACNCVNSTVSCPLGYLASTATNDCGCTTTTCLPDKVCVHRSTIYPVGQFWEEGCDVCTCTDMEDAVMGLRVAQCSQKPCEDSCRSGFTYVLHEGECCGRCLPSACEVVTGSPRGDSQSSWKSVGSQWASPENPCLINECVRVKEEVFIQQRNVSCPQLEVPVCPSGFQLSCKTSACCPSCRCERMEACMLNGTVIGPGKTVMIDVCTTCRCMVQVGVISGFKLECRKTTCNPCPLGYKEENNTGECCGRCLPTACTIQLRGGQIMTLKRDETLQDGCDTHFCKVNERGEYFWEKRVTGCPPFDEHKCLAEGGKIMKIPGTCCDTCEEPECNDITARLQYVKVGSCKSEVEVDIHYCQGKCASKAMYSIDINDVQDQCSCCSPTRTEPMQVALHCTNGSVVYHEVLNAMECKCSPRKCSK

- binding result: binds
B1: Phosphorylase b (enzyme, rabbit, UniProt P00489 1-843, looked up)
chain: MSRPLSDQEKRKQISVRGLAGVENVTELKKNFNRHLHFTLVKDRNVATPRDYYFALAHTVRDHLVGRWIRTQQHYYEKDPKRIYYLSLEFYMGRTLQNTMVNLALENACDEATYQLGLDMEELEEIEEDAGLGNGGLGRLAACFLDSMATLGLAAYGYGIRYEFGIFNQKICGGWQMEEADDWLRYGNPWEKARPEFTLPVHFYGRVEHTSQGAKWVDTQVVLAMPYDTPVPGYRNNVVNTMRLWSAKAPNDFNLKDFNVGGYIQAVLDRNLAENISRVLYPNDNFFEGKELRLKQEYFVVAATLQDIIRRFKSSKFGCRDPVRTNFDAFPDKVAIQLNDTHPSLAIPELMRVLVDLERLDWDKAWEVTVKTCAYTNHTVLPEALERWPVHLLETLLPRHLQIIYEINQRFLNRVAAAFPGDVDRLRRMSLVEEGAVKRINMAHLCIAGSHAVNGVARIHSEILKKTIFKDFYELEPHKFQNKTNGITPRRWLVLCNPGLAEIIAERIGEEYISDLDQLRKLLSYVDDEAFIRDVAKVKQENKLKFAAYLEREYKVHINPNSLFDVQVKRIHEYKRQLLNCLHVITLYNRIKKEPNKFVVPRTVMIGGKAAPGYHMAKMIIKLITAIGDVVNHDPVVGDRLRVIFLENYRVSLAEKVIPAADLSEQISTAGTEASGTGNMKFMLNGALTIGTMDGANVEMAEEAGEENFFIFGMRVEDVDRLDQRGYNAQEYYDRIPELRQIIEQLSSGFFSPKQPDLFKDIVNMLMHHDRFKVFADYEEYVKCQERVSALYKNPREWTRMVIRNIATSGKFSSDRTIAQYAREIWGVEPSRQRLPAPDEKIP
